Measured values from article PMC3323627.

Target: Tula virus (TULV) nonstructural protein NSs, strain Lodz, in infected cells (Tula virus, strain Lodz)
Assay: FRET or BRET

For “ACBD3 protein, endogenous in common vole (Microtus arvalis) kidney cells (natural protein)”, which FRET efficiency is on record?
The FRET efficiency was 20%.
